Test results: US20260125446A1 (Eli Lilly, published 2026)

What was measured:
rabbit serum albumin = molecular target: T1, rabbit serum albumin (rabbit, UniProt P49065 25-608); assay: SPR (Biacore 8K), albumin immobilized on CM5 chip, 25 C
T1 construct: Bought protein, immobilized on a CM5 chip by amine coupling; also called Rabbit SA
Procedure: (§1) The immobilization of the serum albumin to a Series S Sensor Chip CM5 surface is performed according to the manufacturer's instructions (Amine Coupling Kit BR-1000-50). Briefly, carboxyl groups on the sensor chip surfaces (flow cell 1 and 2) are activated by injecting 70 μL of a mixture containing 75 mg/mL EDC and 11.5 mg/mL NHS at 10 μL/min. Human, cynomolgus monkey, mouse, rat, pig, dog, cow and rabbit serum albumin are diluted in 10 mM sodium acetate pH 4.0 (BR-1003-49) at […] and then injected over the activated chip surfaces (flow cell 2, channel 1 to 8) at 10 μL/min for 180 sec (human, mouse, rat, pig and cow serum albumin are obtained from Sigma Aldrich (St. Louis, MO); cynomolgus monkey serum albumin is obtained from Hölzel Diagnostika (Cologne, Germany); dog serum albumin is obtained from Molecular Innovations (Novi, MI); and rabbit serum albumin is obtained from Fitzgerald Industries Intl. (Acton, MA). The various serum albumins are covalently immobilized through free amines onto a carboxymethyl dextran-coated sensor chip CM5 targeting a surface density of about 100 (62-145) RU. Excess reactive groups on the surfaces (flow cell 1 and 2) are deactivated by injecting 70 μL of 1 M ETA HCl—NaOH pH 8.5.
(§2) 150 μl of sample is individually injecting sequentially across the immobilized serum albumins on the chip's surface and dissociating for 600 sec at 50 μL/min flow rate at 25° C. The surface is regenerated by injecting 10 mM glycine-HCl pH 1.5 (BR-1003-54) at 50 μL/min for 100 sec. The resulting sensorgrams are analyzed using Biacore 8K Insight Evaluation Software (version 2.0.15.12933) 1:1 binding kinetics model fitting to calculate the binding kinetic parameter association rate (ka), dissociation rate (kd), and equilibrium dissociation constant (KD).

cow serum albumin = molecular target: T2, cow serum albumin (cow, UniProt P02769 25-607); assay: SPR (Biacore 8K), albumin immobilized on CM5 chip, 25 C, steady state
T2 construct: Bought protein, immobilized on a CM5 chip by amine coupling; also called Cow SA
Procedure: as §1
150 μl of sample is individually injecting sequentially across the immobilized serum albumins on the chip's surface and dissociating for 600 sec at 50 μL/min flow rate at 25° C. The surface is regenerated by injecting 10 mM glycine-HCl pH 1.5 (BR-1003-54) at 50 μL/min for 100 sec. The resulting sensorgrams are analyzed using Biacore 8K Insight Evaluation Software ([…]).

rat serum albumin = molecular target: T3, rat serum albumin (rat, UniProt P02770 25-608); assay: SPR (Biacore 8K), albumin immobilized on CM5 chip, 25 C, 1:1 kinetic fit
T3 construct: Bought protein, immobilized on a CM5 chip by amine coupling; also called Rat SA
Procedure: as §1, §2

pig serum albumin = molecular target: T4, pig serum albumin (pig, UniProt P08835 25-607); assay: as above
T4 construct: Bought protein, immobilized on a CM5 chip by amine coupling; also called Pig SA
Procedure: as §1, §2

mouse serum albumin = molecular target: T5, mouse serum albumin (mouse, UniProt P07724 25-608); assay: as above
T5 construct: Bought protein, immobilized on a CM5 chip by amine coupling; also called Mouse SA
Procedure: as §1, §2

[1] = molecular target: T6, cynomolgus monkey serum albumin (cynomolgus monkey, UniProt A2V9Z4 25-608); assay: as above
T6 construct: Bought protein, immobilized on a CM5 chip by amine coupling; also called Cyno SA
Procedure: as §1, §2

human serum albumin = molecular target: T7, human serum albumin (human, UniProt P02768 25-609); assay: as above
T7 construct: Bought protein, immobilized on a CM5 chip by amine coupling; also called Human SA
Procedure: as §1, §2

dog serum albumin = molecular target: T8, dog serum albumin (dog, UniProt P49822 25-608); assay: as above
T8 construct: Bought protein, immobilized on a CM5 chip by amine coupling; also called Dog SA
Procedure: as §1, §2

| Binder | binding result (rabbit serum albumin) | Kd (cow serum albumin) [nM] | Kd (rat serum albumin) [nM] | koff (rat serum albumin) [s⁻¹] | kon (rat serum albumin) [M⁻¹ s⁻¹] | Kd (pig serum albumin) [nM] | koff (pig serum albumin) [s⁻¹] | kon (pig serum albumin) [M⁻¹ s⁻¹] | Kd (mouse serum albumin) [nM] | koff (mouse serum albumin) [s⁻¹] | kon (mouse serum albumin) [M⁻¹ s⁻¹] | Kd [1] [nM] | koff [1] [s⁻¹] | kon [1] [M⁻¹ s⁻¹] | Kd (human serum albumin) [nM] | koff (human serum albumin) [s⁻¹] | kon (human serum albumin) [M⁻¹ s⁻¹] | Kd (dog serum albumin) [nM] | koff (dog serum albumin) [s⁻¹] | kon (dog serum albumin) [M⁻¹ s⁻¹] |
| --- | --- | --- | --- | --- | --- | --- | --- | --- | --- | --- | --- | --- | --- | --- | --- | --- | --- | --- | --- | --- |
| RLN Analog 3 (other, Single-chain fusion: VHH - (G4Q)5 L1 - RLN2 B chain (desB1) - L2 - RLN2 A chain) EVQLLESGGGLVQPGGSLRLSCAASGRYIDETAVAWFRQAPGKEREFVAGIGGGVDITYYADSVKGRFTISRDNSKNTLYLQMNSLRPEDTAVYYCAARPGRPLITSKVADLYPYWGQGTLVTVSSGGGGQGGGGQGGGGQGGGGQGGGGQSWMEEVIKLCGRELVRAQIAICGMSTWSGGGSGGSGGGQLYSALANKCCHVGCTKRSLARFC | no binding (tested: 1000 nM (highest concentration tested)) | 26 | 1.6 | 0.0027 | 1.7e+06 | 4.8 | 0.0053 | 1.1e+06 | 2.4 | 0.004 | 1.7e+06 | 0.36 | 0.00054 | 1.5e+06 | 0.076 | 0.00011 | 1.4e+06 | 0.7 | 0.0014 | 2e+06 |
| RLN Analog 7 (other, Single-chain fusion: VHH - (G4Q)5 L1 - RLN2 B chain (desB1) - L2 - RLN2 A chain) EVQLLESGGGLVQPGGSLRLSCAASGRYIDETAVAWFRQAPGKGREFVAGIGGGVDITYYADSVKGRFTISRDNSKNTLYLQMNSLRPEDTAVYYCAARPGRPLITSKVADLYPYWGQGTLVTVSSGGGGQGGGGQGGGGQGGGGQGGGGQSWMEEVIKLCGRELVRAQIAICGMSTWSGGGSGGSGGGQLYSALANKCCHVGCTKRSLARFC | no binding (tested: 1000 nM (highest concentration tested)) | 25 | 1.4 | 0.0028 | 2e+06 | 3.7 | 0.0054 | 1.5e+06 | 2.1 | 0.0041 | 2e+06 | 0.29 | 0.00059 | 2.1e+06 | 0.063 | 0.00012 | 1.9e+06 | 0.69 | 0.0015 | 2.2e+06 |
| RLN Analog 11 (other, Single-chain fusion: VHH - (G4Q)5 L1 - RLN2 B chain (desB1) - L2 of thirteen residues - RLN2 A chain (desA1-4)) EVQLLESGGGLVQPGGSLRLSCAASGRYIDETAVAWFRQAPGKEREFVAGIGGGVDITYYADSVKGRFTISRDNSKNTLYLQMNSLRPEDTAVYYCAARPGRPLITSKVADLYPYWGQGTLVTVSSGGGGQGGGGQGGGGQGGGGQGGGGQSWMEEVIKLCGRELVRAQIAICGMSTWSGGGSGGSGGSGGGALANKCCHVGCTKRSLARFC | no binding (tested: 1000 nM (highest concentration tested)) | 27 | 1.3 | 0.0028 | 2.1e+06 | 7.3 | 0.0062 | 850000 | 3.6 | 0.005 | 1.4e+06 | 0.48 | 0.00064 | 1.3e+06 | 0.17 | 0.00021 | 1.2e+06 | 1.3 | 0.0017 | 1.4e+06 |
| RLN Analog 12 (other, Single-chain fusion: VHH - (G4Q)5 L1 - RLN2 B chain (desB1) - L2 of thirteen residues - RLN2 A chain (desA1-4)) EVQLLESGGGLVQPGGSLRLSCAASGRYIDETAVAWFRQAPGKGREFVAGIGGGVDITYYADSVKGRFTISRDNSKNTLYLQMNSLRPEDTAVYYCAARPGRPLITSKVADLYPYWGQGTLVTVSSGGGGQGGGGQGGGGQGGGGQGGGGQSWMEEVIKLCGRELVRAQIAICGMSTWSGGGSGGSGGSGGGALANKCCHVGCTKRSLARFC | no binding (tested: 1000 nM (highest concentration tested)) | 30 | 1.7 | 0.0033 | 2e+06 | 4.2 | 0.0058 | 1.4e+06 | 2.6 | 0.0049 | 1.8e+06 | 0.47 | 0.0007 | 1.5e+06 | 0.14 | 0.00019 | 1.4e+06 | 0.77 | 0.0016 | 2.1e+06 |
| RLN Analog 14 (other, Single-chain fusion: VHH - (PGPQ)8 L1 - RLN2 A chain (desA1-4) - L2 - RLN2 B chain (desB1)) EVQLLESGGGLVQPGGSLRLSCAASGRYIDETAVAWFRQAPGKGREFVAGIGGGVDITYYADSVKGRFTISRDNSKNTLYLQMNSLRPEDTAVYYCAARPGRPLITSKVADLYPYWGQGTLVTVSSPGPQPGPQPGPQPGPQPGPQPGPQPGPQPGPQALANKCCHVGCTKRSLARFCGGGSGGSGGGSWMEEVIKLCGRELVRAQIAICGMSTWS | no binding (tested: 1000 nM (highest concentration tested)) | 34 | 2.2 | 0.0032 | 1.4e+06 | 6 | 0.0058 | 970000 | 3.1 | 0.0046 | 1.5e+06 | 0.61 | 0.00068 | 1.1e+06 | 0.16 | 0.00019 | 1.2e+06 | 1.1 | 0.0017 | 1.5e+06 |
| RLN Analog 4 (other, Single-chain fusion: VHH - (PGPQ)8 L1 - RLN2 B chain (desB1) - L2 - RLN2 A chain) EVQLLESGGGLVQPGGSLRLSCAASGRYIDETAVAWFRQAPGKEREFVAGIGGGVDITYYADSVKGRFTISRDNSKNTLYLQMNSLRPEDTAVYYCAARPGRPLITSKVADLYPYWGQGTLVTVSSPGPQPGPQPGPQPGPQPGPQPGPQPGPQPGPQSWMEEVIKLCGRELVRAQIAICGMSTWSGGGSGGSGGGQLYSALANKCCHVGCTKRSLARFC | no binding (tested: 1000 nM (highest concentration tested)) | 37 | 2.1 | 0.0026 | 1.2e+06 | 6.2 | 0.0053 | 860000 | 3 | 0.0039 | 1.3e+06 | 0.42 | 0.00053 | 1.3e+06 | 0.089 | 0.00011 | 1.2e+06 | 1 | 0.0014 | 1.4e+06 |
| RLN Analog 8 (other, Single-chain fusion: VHH - (PGPQ)8 L1 - RLN2 B chain (desB1) - L2 - RLN2 A chain) EVQLLESGGGLVQPGGSLRLSCAASGRYIDETAVAWFRQAPGKGREFVAGIGGGVDITYYADSVKGRFTISRDNSKNTLYLQMNSLRPEDTAVYYCAARPGRPLITSKVADLYPYWGQGTLVTVSSPGPQPGPQPGPQPGPQPGPQPGPQPGPQPGPQSWMEEVIKLCGRELVRAQIAICGMSTWSGGGSGGSGGGQLYSALANKCCHVGCTKRSLARFC | no binding (tested: 1000 nM (highest concentration tested)) | 21 | 1.7 | 0.0028 | 1.6e+06 | 4.1 | 0.0052 | 1.3e+06 | 1.8 | 0.0039 | 2.2e+06 | 0.32 | 0.00059 | 1.9e+06 | 0.078 | 0.00011 | 1.5e+06 | 0.66 | 0.0015 | 2.3e+06 |
